No end group written: not given here. MDA = malondialdehyde
Molecular target: scavenger LDL receptor in monocytes
Assay: cell-based or functional assay

| Binder | Mean fluorescence (Ex 520 nm, Em 590 nm) of DiI-labelled oxidised LDL (50 ug) taken up by lipid-starved U937 monocytes with 500 ug peptide as competitor; oxidised LDL alone 3433, Control 1657 |
| --- | --- |
| ALQYK(MDA)LEGTTR (not fully specified) [peptide SEQ ID NO: 1 MDA-conjugated] | 2130 fluorescence (unit not printed) |
| RLTRKRGLKLA [peptide SEQ ID NO: 2] | 1410 fluorescence (unit not printed) |
| ALQYKLEGTTR (also: multiple antigenic peptide, branching core and copy number not given here, MDA-conjugated, site not given here) [multiple antigenic peptide SEQ ID NO: 1 MDA-conjugated (mapped peptide)] | 2610 fluorescence (unit not printed) |

Second part, the binder after the results:

| Mean fluorescence (Ex 520 nm, Em 590 nm) of DiI-labelled oxidised LDL (50 ug) taken up by lipid-starved U937 monocytes with 500 ug peptide as competitor; oxidised LDL alone 3433, Control 1657 | Binder |
| --- | --- |
| 2450 fluorescence (unit not printed) | RLTRK(MDA)RGLKLA [peptide SEQ ID NO: 2 MDA-conjugated] |
| 2000 fluorescence (unit not printed) | ALSLSNK(MDA)FVEG [peptide SEQ ID NO: 3 MDA-conjugated] |
| 1760 fluorescence (unit not printed) | ALSLSNKFVEG [peptide SEQ ID NO: 3] |

Source: patent publication US20060148055A1 (published 2006)
